Residue numbers refer to the chain shown, from its start. Where two headings read alike, the source gives them in different places.
T1: Mouse IL-2 (mouse, UniProt P04351 21-169)
T1 sequence (looked up): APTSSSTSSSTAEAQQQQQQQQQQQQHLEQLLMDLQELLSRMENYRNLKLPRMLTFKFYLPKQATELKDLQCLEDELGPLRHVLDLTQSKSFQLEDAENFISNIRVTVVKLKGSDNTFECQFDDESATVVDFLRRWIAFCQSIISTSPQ

T2: human IL-2 Rβγ (IL-2 Rβ and γc) on cells (human, UniProt P14784 27-551; P31785 23-369)
T2 construct: whole, on cells; on CD25-depleted human primary NK cells in the pSTAT5 assay; also called CHO/Rβγ; CHO/IL-2 Rβγ (#20-21)
T2 sequence (looked up) 1: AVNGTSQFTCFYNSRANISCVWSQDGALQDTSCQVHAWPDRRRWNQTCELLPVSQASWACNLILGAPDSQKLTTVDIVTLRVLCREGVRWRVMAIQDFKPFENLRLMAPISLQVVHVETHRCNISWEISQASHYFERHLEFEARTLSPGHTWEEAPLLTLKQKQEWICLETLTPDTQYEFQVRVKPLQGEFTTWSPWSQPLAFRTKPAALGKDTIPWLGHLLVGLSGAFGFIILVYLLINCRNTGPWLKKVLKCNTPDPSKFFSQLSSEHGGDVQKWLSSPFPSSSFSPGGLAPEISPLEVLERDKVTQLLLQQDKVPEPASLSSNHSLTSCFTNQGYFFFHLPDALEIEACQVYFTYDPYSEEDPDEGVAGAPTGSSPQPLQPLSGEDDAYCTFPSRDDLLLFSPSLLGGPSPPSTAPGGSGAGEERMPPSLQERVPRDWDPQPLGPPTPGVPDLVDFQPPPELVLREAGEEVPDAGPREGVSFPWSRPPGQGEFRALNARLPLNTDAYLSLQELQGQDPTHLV
T2 sequence (looked up) 2: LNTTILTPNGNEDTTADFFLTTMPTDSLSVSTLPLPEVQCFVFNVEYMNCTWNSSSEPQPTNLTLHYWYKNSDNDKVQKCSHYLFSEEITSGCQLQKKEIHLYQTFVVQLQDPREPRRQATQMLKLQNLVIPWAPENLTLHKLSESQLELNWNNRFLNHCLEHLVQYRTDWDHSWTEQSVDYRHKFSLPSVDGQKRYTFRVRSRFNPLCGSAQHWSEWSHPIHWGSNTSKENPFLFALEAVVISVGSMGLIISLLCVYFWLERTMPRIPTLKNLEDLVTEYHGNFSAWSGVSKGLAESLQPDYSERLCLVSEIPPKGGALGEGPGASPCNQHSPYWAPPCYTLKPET

T3: CHOk1-IL2Ralpha
T3 construct: clone number not given; also called CHO/Rα; CHO/IL-2 Rα
T3 chain: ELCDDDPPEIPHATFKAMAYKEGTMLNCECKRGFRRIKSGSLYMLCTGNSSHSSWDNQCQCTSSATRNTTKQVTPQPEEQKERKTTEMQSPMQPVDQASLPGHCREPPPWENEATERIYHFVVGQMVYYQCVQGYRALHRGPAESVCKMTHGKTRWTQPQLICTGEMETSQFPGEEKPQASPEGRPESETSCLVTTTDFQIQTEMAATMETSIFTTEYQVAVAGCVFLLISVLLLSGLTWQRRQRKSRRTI

T4: Rat IL-2 (rat, UniProt P17108 21-155)
T4 sequence (looked up): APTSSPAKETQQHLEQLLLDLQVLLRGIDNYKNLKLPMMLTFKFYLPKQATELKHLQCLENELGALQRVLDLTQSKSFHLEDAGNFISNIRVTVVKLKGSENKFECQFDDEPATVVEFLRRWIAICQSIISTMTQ

T5: Rabbit IL-2 (rabbit, UniProt O77620 21-153, limits assumed)
T5 sequence (looked up): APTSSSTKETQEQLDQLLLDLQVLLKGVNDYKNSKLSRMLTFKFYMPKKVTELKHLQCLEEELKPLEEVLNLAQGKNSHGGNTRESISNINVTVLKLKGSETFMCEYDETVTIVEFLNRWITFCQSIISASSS

B1: XPA.92.041 (antibody, V domains shown)
VH: EVQLVQSGAEVKKPGESLKISCKGSGYNFDTYWIGWVRQMPGRGLEWMGTIYPADSDTRYSPSFQGQVTTSADKSISTAYLQWGSLRASDTAMYYCARFSSSAYDIWGQGTMVTVSS
VL: SYELTQPPSVSVSPGQTARITCSGDALPRQFAYWYQQKPGQAPVLVIYKDTERPSGIPERFSGSSSGTTVTLTISGVQAEDEADYYCQSADSSGTYHVFGGGTQLTVLG
notes: Tested as purified full-length human IgG
B2: XPA.92.042 (antibody, V domains shown)
VH: B1 VH with A9T, P14A, E16D, T70M
VL: SYELTQPPSVSVSPGQTARITCSGDALPRKFAYWYQQKSGQAPVLVIYQDTKRPSGIPERFSGSSSGTTVTLTISDVQAEDDADYYCQSADRSDSYVFGAGTKLTVLG
notes: as for B1
B3: XPA.92.019 (antibody, V domains shown)
VH: EVQLVESGGGLVQPGRSLRLSCAASGFTFSYYGMHWVRQAPGKGLEWVADISNDGSNKYYADSVKGRFTISRDNSKTTLYLQMNSLRPEDTAVYYCATPYYDSSGLDYWGQGTLVTVSS
VL: SYELTQPPSVSVSPGQTARITCSGDALPKRFAYWYQQKAGQAPVLVIYEDNKRPSGIPETLSGSSSGTTATLTISGAQEEDEADYYCYSTDNTGGLWVFGGGTKLTVLG
notes: Tested as purified full-length human IgG; also called mAb19

How the values were obtained:
[1] = biological target: T6, Recombinant human IL-2 (human, UniProt P60568 21-153); assay: cell-based or functional assay
[2] = biological target: T1, Mouse IL-2; assay: listed for comparison in the SPR species cross-reactivity table
[3] = biological target: T6, Recombinant human IL-2; assay: listed for comparison in the SPR table; method for this antibody not described
[4] = biological target: T6, Recombinant human IL-2; assay: cell-based or functional assay; remark: listed apart in the source
[5] = biological target: T2, human IL-2 Rβγ (IL-2 Rβ and γc) on cells; assay: flow cytometry, IgG binding (MFI); antibody titrated on CHOk1-IL2Rbeta-gamma (20-21) cells without IL2
Description: (§1) After phage-derived antibody fragments were reformatted into full-length human IgGs, the purified antibodies were screened on CHO/Rα, CHO/Rβ, CHO/Rβγ, and parental CHO-K1 cells grown and stained as described above. […] This was allowed to incubate at 4° C. for 1 to 1.5 hours. Bound antibody was detected by the addition of anti-human heavy chain and light chain (Jackson Immuno Research #109-136-088) at 1:1000 and incubating at 4° C. for 30 minutes to 1 hour. Samples were analyzed using BD FACs Canto flow cytometer.

[6] = biological target: T6, Recombinant human IL-2; assay: SPR (Biacore 4000), IgG captured on anti-human IgG Fc, rhIL-2 0.11-10 nM
Description: (§2) Antibody affinities were measured by SPR using the Biacore 4000 with a standard capture methodology. Briefly, anti-human IgG (Fc specific) from an anti-human antibody capture kit (Biacore) was immobilized onto spots 1, 2, 4, and 5 of all four flow cells of a CM-5 sensor chip by amine coupling according to the manufacturer's instructions. Running buffer was HBS-EP+ with 1% BSA. […] Data were analyzed using the Biacore 4000 Evaluation software.

[7] = biological target: T6, Recombinant human IL-2; assay: cell-based or functional assay; remark: listed apart in the source
[8] = biological target: T6, Recombinant human IL-2; assay: cell-based or functional assay; remark: listed apart in the source
[9] = biological target: T3, CHOk1-IL2Ralpha; assay: flow cytometry, IgG binding (MFI); antibody titrated on CHOk1-IL2Ralpha cells without IL2
Description: as §1

[10] = biological target: T6, Recombinant human IL-2; assay: cell-based or functional assay; remark: listed apart in the source
[11] = biological target: T6, Recombinant human IL-2; assay: cell-based or functional assay; remark: listed apart in the source
[12] = biological target: T1, Mouse IL-2; assay: SPR (Biacore 4000), IgG captured on anti-human IgG Fc, IL-2 30 nM to 1 nM; affinity estimate
Description: as §2
(§3) These sequences were imported into vector NTI® (Lifetech) and aligned using the alignx tool.

[13] = biological target: T4, Rat IL-2; assay: as above
Description: as §2, §3

[14] = biological target: T5, Rabbit IL-2; assay: as above
Description: as §2, §3

| Molecule | pSTAT5a,b Ratio of EC50s (Rαβγ/Rβγ), murine cells [4] | pSTAT5a,b fold EC50 shift, CTLL-2 (muRαβγ) [4] [fold] | pSTAT5a,b fold EC50 shift, Mouse Primary NK cells (muβγ) [4] [fold] | binding result [5] | Kd [6] [nM] | koff [6] [s⁻¹] | kon [6] [M⁻¹ s⁻¹] | Fold EC50 shift of IL-2-induced proliferation, BaF3/IL-2 HuRβγ [7] [fold] | Fold EC50 shift of IL-2-induced proliferation, NK92 (huRαβγ) [7] [fold] | Ratio (huRαβγ/Rβγ) of fold EC50 shifts, proliferation [7] | EC50 of IL-2-induced pSTAT5a,b in CD25-depleted human primary NK cells with 100 nM antibody [8] [pM] | EC50 of IL-2-induced pSTAT5a,b in NK-92 cells with 100 nM antibody [8] [pM] | EC50 of IL-2-induced pSTAT5a,b in mouse primary NK cells with 100 nM antibody [8] [pM] | binding result [9] | pSTAT5a,b Ratio of EC50s (Rαβγ/Rβγ), human cells [10] | pSTAT5a,b fold EC50 shift, Human Primary NK cells (huRβγ) [10] [fold] | pSTAT5a,b fold EC50 shift, NK92 (huRαβγ) [10] [fold] | Fold EC50 shift of IL-2-induced proliferation, CTLL-2 (muRαβγ) [11] [fold] | Kd [12] [nM] | Kd [14] [nM] | further results |
| --- | --- | --- | --- | --- | --- | --- | --- | --- | --- | --- | --- | --- | --- | --- | --- | --- | --- | --- | --- | --- | --- |
| MAB602 (antibody) |  |  |  |  |  |  |  |  |  |  |  |  |  |  |  |  |  |  |  |  | EC50 of IL-2-induced pSTAT5a,b in NK-92 cells with 100 nM antibody [1]: 900 pM; EC50 of IL-2-induced pSTAT5a,b in mouse primary NK cells with 100 nM antibody [1]: 361 pM; Kd [2]: 10 nM; Kd [3]: 0.12 nM |
| B1 | 34 | 404 | 12 | no binding | 0.058 | 0.00032 | 5.6e+06 | 3.9 | 35 | 9 | 4520 | 1150 | 1350 | no binding | 35 | 35 | 1230 | 58 | 40 | 0.5 | Kd [13]: 1 nM |
| B2 | 57 | 793 | 14 | no binding | 0.028 | 0.00025 | 8.9e+06 | 5 | 52 | 10 | 5120 | 1700 | 1660 | no binding | 45 | 41 | 1860 | 156 | 10 | 0.6 | Kd [13]: 6 nM |
| B3 | 35 | 523 | 15 |  | 0.0095 | 3.4e-05 | 3.7e+06 | 5.2 | 33 | 6 | 5040 | 900 | 1720 | no binding | 24 | 40 | 966 | 130 | 100 | 0.2 |  |

From US20180094053A1 (XOMA US, published 2018)
